Measurements: US20080219974A1

Target: human V158 FcγRIIIa (human) (UniProt P08637)
Experiment: not described in this filing

Chain of human V158 FcγRIIIa (human) (P08637 17-208 F176V limits assumed): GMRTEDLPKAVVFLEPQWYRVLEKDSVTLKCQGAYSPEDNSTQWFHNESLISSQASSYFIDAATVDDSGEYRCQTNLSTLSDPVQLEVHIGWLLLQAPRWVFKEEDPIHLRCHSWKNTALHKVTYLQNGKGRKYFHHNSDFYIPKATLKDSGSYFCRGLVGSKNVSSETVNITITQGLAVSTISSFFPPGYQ

## human WT IgG1 (antibody)
  Kd: 0.24 µM
